The experiment has as its target T1, bovine serum albumin (bovine, UniProt P02769 25-607).
T1 construct: Control coating; also called BSA
The experiment in a line: phage ELISA on coated BSA, HRP anti-phage detection. The method, then: Recombinant phages were isolated by precipitation with poly(ethylene glycol) (PEG 8000) and samples of Phtlec and PhTN3 phage preparations as well as a sample of helper phage were subjected to an ELISA-type sandwich assay, in which wells of a Maxisorb (Nunc) multiwell plate were first incubated with anti-human tetranectin or bovine serum albumin (BSA) and blocked in skimmed milk or skimmed milk/EDTA. Briefly, cultures of pPhtlec and pPhTN3 phagemid transformed TG1 cells were grown at 37° C. in 2×TY-medium supplemented with 2% glucose and 100 mg/L ampicillin until A₆₀₀ reached 0.5. By then the helper phage, M13K07, was added to a concentration of 5×10⁹ pfu/mL. The cultures were incubated at 37° C. for another 30 min before cells were harvested by centrifugation and resuspended in the same culture volume of 2×TY medium supplemented with 50 mg/L kanamycin and 100 mg/L ampicillin and transferred to a fresh set of flasks and grown for 16 hours at 25° C. Cells were removed by centrifugation and the phages precipitated from 20 mL culture supernatant by the addition of 6 mL of ice cold 20% PEG 8000, 2.5 M NaCl. After mixing the solution was left on ice for one hour and centrifuged at 4° C. to isolate the precipitated phages. […] Phages in the wells were detected after incubation with HRP-conjugated anti-phage conjugate (Amersham Pharmacia, code no. 27-9421-01) followed by further washing.
On the technique in general: An ELISA detects its analyte on a solid surface through an enzyme-linked reagent.

T1 sequence (P02769 25-607 limits assumed): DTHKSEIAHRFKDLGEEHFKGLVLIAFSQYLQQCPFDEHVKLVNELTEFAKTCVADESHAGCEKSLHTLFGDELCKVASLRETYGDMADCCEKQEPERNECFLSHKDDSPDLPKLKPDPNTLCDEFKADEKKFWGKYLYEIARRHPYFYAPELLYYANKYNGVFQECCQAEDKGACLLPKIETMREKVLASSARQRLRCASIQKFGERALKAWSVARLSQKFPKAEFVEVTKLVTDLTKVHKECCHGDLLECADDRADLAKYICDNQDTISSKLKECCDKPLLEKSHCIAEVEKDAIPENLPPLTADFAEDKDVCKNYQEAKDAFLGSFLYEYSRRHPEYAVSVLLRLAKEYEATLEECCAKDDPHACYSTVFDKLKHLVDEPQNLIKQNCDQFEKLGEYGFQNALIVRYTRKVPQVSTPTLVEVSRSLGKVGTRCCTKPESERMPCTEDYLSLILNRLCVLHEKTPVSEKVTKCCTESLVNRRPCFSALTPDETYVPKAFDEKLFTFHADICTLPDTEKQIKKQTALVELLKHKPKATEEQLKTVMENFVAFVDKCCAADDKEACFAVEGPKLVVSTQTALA

B1: Phtlec phage (Phtlec-gene III fusion protein displayed on recombinant phage) (other)
chain: PAMAEPPTQKPKKIVNAKKDVVNTKMFEELKSRLDTLAQEVALLKEQQALQTVVLKGTKVHMKVFLAFTQTKTFHEASEDCISRGGTLSTPQTGSENDALYEYLRQSVGNEAEIWLGLNDMAAEGTWVDMTGTRIAYKNWETEITAQPDGGKTENCAVLSGAANGKWFDKRCRDQLPYICQFGIVA
notes: Tested as whole phage particles rescued with M13KO7; claim 15 says htlec itself is position 5 Glu to 185 Val of it; also called human Phtlec phages; Phlec; not shown: phage gene III protein fused after the Phtlec part, as encoded by phagemid pCANTAB 5E; limits and any tag in between not
On to B1, for which the binding result is reported as “no binding”.

B2: PhTN3 phage (PhTN3-gene III fusion protein displayed on recombinant phage) (other)
chain: PAMAALQTVCLKGTKVHMKCFLAFTQTKTFHEASEDCISRGGTLSTPQTGSENDALYEYLRQSVGNEAEIWLGLNDMAAEGTWVDMTGARIAYKNWETEITAQPDGGKTENCAVLSGAANGKWFDKRCRDQLPYICQFGIVA
notes: Tested as whole phage particles rescued with M13KO7; claim 18 says hTN3 is position 5 Ala to 141 Val of it; also called human PhTN3 phages; PhCTLD; not shown: phage gene III protein fused after the PhTN3 part, as encoded by phagemid pCANTAB 5E; limits and any tag in between not
Take B2: the binding result is on record as “no binding”.
